Measured values: US20260274975A1
Non-standard residues stand in square brackets, D forms with d. No end group written: not given here.

Molecular target: Anti-Müllerian hormone Receptor 2 (AMH-R2), protein target applied to the peptide microarray (UniProt Q16671)
Assay: peptide microarray; protein target detected by anti-GST and Alexa Fluor 647 antibody, scanned signal

Chain of UniProt Q16671 (Q16671 18-149 limits assumed): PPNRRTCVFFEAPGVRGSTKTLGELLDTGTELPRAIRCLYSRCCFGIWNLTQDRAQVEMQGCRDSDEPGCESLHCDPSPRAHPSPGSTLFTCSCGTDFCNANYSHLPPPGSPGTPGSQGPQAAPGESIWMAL

Binder	Average	Rep 1	Rep 2
[dR][dW]G[dA]SN[dK]HFAN[dA]NQ[dR][dA][dL] [NegAMHR2BP (SEQ ID NO: 4)]	65500	65500	65400
DG[dL]GSV[dL]A[dR][dK]N[dR][dR]D[dA]V[dL] [AMH receptor binding peptide SEQ ID NO: 5]	65500	65400	65500
G[dL]Q[dW]SFANGQ[dW][dR]G[dA][dL]SG [AMH receptor binding peptide SEQ ID NO: 12]	63800	64600	62900
NG[dR]SQAHN[dL][dR][dK][dA]GV[dA][dL]S [AMH receptor binding peptide SEQ ID NO: 15]	61500	62900	60000
EG[dL]QSSAYNNY[dW][dR][dK][dL]V[dA] [AMH receptor binding peptide SEQ ID NO: 17]	61200	60200	62200
G[dL]Y[dW]SAYNP[dW][dR]HV[dA][dL][dA]S [AMH receptor binding peptide SEQ ID NO: 18]	59200	60800	57500
GG[dR]SVSAN[dL]Q[dR]E[dR][dK]V[dA]G [AMH receptor binding peptide SEQ ID NO: 19]	56900	55700	58100
[dK]GSNA[dR][dK]N[dR][dR]D[dA]SGV[dA][dL] [AMH receptor binding peptide SEQ ID NO: 20]	47900	52300	43500
Y[dW]G[dW]SHA[dK][dA]NQFPN[dR][dL][dA] [AMH receptor binding peptide SEQ ID NO: 3]	65500	65500	65500
